Assay results reported in patent US20220396632A1.

B1: 01A04 (antibody, IgG4, V domains shown)
VH: EVQLVQSGAEVKKPGASVKVSCKASGYTFTSYYIHWVRQAPGQGLEWMGIIRPSGGSTSYAQKFQGRVTMTRDTSTSTVYMELSSLRSEDTAMYYCARVGVGSFDYWGQGTLVTVSS
VL: DIQMTQSPSTLSASVGDRVTITCRASQSVSNWLAWYQQKPGKAPKLLIYKASSLESGVPSRFSGSGSGTEFTLTISSLQPDDFATYYCQWFRTFGPGTKVDIK
B2: 03D01 (antibody, IgG4, V domains shown)
VH: EVQLVQSGGGLVQPGGSLRLSCAATGFTVSRNYMTWVREAPGKGLEWVAGIYKSGTTSYIESVKGRFTISRDNSKNTLYLEMSRLRAEDTAVYYCAKSTSTWGQGTQVTVSS
VL: DVVMTQSPVSLPVTLGQPASISCRSSRNLLYSNGNTYLNWFHQRPGQSPRRLIYKVSNQDSGVPDRFSGSGSGTDFTLKISRVEAEDVGVYYCMQGTHWPTTFGQGTRLEIK
B3: 09D11 (antibody, IgG4, V domains shown)
VH: QVQLVESGGGFIQPGGSLRLSCAASGLTFSNYAMTWVRQAPGKGLEWVSTISGGGGNTYYTDSVKGRFTISRDNSKNTLYLQMNSLKAEDTAVYRCAKGLAAALFDYWGQGTLVTVSS
VL: DIVLTQSPDSLPVTPGEPASISCRSSRSLLHSNGHNFLAWYLQKPGQSPHLLIYLGSNRASGVPDRFSGSGSGTDFTLKISRVEAEDVGIYYCMQALQTPITFGQGTRLDIK
B4: 09B09 (antibody, IgG4, V domains shown)
VH: EVKLLESGGGLVQPGGSLRLSCAASGITFSTYAMMWVRQAPGKGLEWVSGISGSGASRYYADSVKGRFTISRDNSKNMLYLQMNSLRAEDTAVYYCAKKVLGRRKQYFDDWGQGTLVTVSS
VL: DIVMTQSPLSLPVTPGEPASISCRSSQSLLHSNGYNYLDWYLQRPGQSPQLLIYLGSHRASGVPDRFSGSGSGTEHTLKITTVAAEDVGVYYCMQALQSPPTFGQGTRLDIK

Target: T1, Scrambled Y42,52,63(SO3) PSGL-1(42-62) biotin peptide
T1 sequence (peptide, sulfotyrosine at peptide positions 1, 11 and 22; C-terminal Lys-biotin): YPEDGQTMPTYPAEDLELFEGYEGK
Test: ELISA, immobilized biotin peptide

Binder	A450nm, 20 nM mAb [A450nm]
B1	0.13
B2	0.12
B3	0.09
B4	0.37
